From patent publication US20160251409A1 come the findings set out here.

This test deals with GPIIb/IIIa receptor on platelets (human) (UniProt P08514). In words: cell-based or functional assay.

For the substance Abciximab (ReoPro®) (Fab), the Platelet aggregation, 30 nM, SFLLRN 10 µM activated platelets is 60.7 % of control.
